The text below walks through data of patent US20030199671A1 (published 2003).

Test [1] concerns the target T1, human IgG3 (human, UniProt P01860-1 1-377).
T1 construct: Calbiochem; plasma IgG3 in anisotropy studies, myeloma-derived (cat. 400124) in batch/column studies; also called hIgG3
Put plainly: anisotropy; pH 4.0 + salt.

In test [2] the target is T1, human IgG3. The experiment in a line: anisotropy; pH 4.0 - salt.
Test [3] has as its target T2, human IgG4 (human, UniProt P01861-1 1-327 = IgG part).
T2 construct: Calbiochem; plasma IgG4 in anisotropy studies, myeloma-derived (cat. 400126) in batch/column studies; also called hIgG4
The experiment in a line: batch binding, immobilised ligand. The method, then: (§1) IgG targets were diluted into 10 mM phosphate buffer containing 150 mM NaCl and 0.01% Tween 20, pH 7.2 (PBST) or 50 mM Tris buffer containing, 150 mM NaCl and 0.01% Tween-20, pH 7.5 (TBST). Batch (static) binding and elution studies were conducted in a 96-well assay filterplate (Millipore MultiScreen-HV, with 0.45 μm Durapore membrane, product no. MAHVN4510). The target was allowed to incubate with the resin for 1-1.5 hours with shaking at room temperature. Unbound target was collected by centrifugation of samples from the assay plate directly into a low-UV absorbing 96-well collection plate (Costar, product no. 3635 or Greiner, product no. 655801). The unbound target was then quantitated by reading the absorbance at 280 nm (normalized to 1 cm pathlength, 1.4 mg/ml A280 extinction coefficient) of the collection plate on a microplate spectrophotometer (Molecular Devices Corp., SPECTRAmax PLUS) against a buffer blank.
(§2) The percentage bound target was determined by subtracting the mass determined as unbound from the corresponding condition's control values (control non-filtered added directly to the collection plate and/or the negative control). The assay plate was washed (3×) with 200 μl of binding buffer by vacuum filtration followed by addition of 100 μl of various elution conditions (e.g.: 0.1 M sodium bicarbonate buffer, pH 8.5 and/or 0.1 M sodium citrate buffer, pH 4.0). After a 30-60 minute incubation with shaking at room temperature, the eluted target was collected by centrifugation of the assay plate into another collection plate and quantitated in a similar manner. Percent elution of total load was then determined to characterize elution recovery efficiency under various conditions.

Test [4] has as its target T3, human IgG2 (human, UniProt P01859-1 1-326 = IgG part).
T3 construct: Calbiochem; plasma IgG2 in anisotropy studies, myeloma-derived (cat. 400122) in batch/column studies; also called hIgG2
Put plainly: batch binding, immobilised ligand. Here is the method: as §1, §2

Test [5] has as its target T4, human IgG1 (human, UniProt P01857-1 1-330 = IgG part).
T4 construct: Calbiochem; human plasma IgG1 in anisotropy studies, myeloma-derived (cat. 400120) in batch/column studies; also called hIgG1
The experiment in a line: batch binding, immobilised ligand. Here is the method: as §1, §2

Test [6] has as its target T1, human IgG3. The experiment in a line: batch binding, immobilised ligand. The method, then:
as §1, §2

The target of test [7] is T2, human IgG4. Put plainly: mini-column chromatography, immobilised ligand. Here is the method:
(§3) Thus, 250 μg of target (hIgG1, hIgG2, hIgG3, hIgG4, goat IgG and bovine IgG) at 0.250 mg/ml in PBST, pH 7.2 or TBST, pH 7.3 was loaded onto a 350 μl column (3×50 mm) run at 0.200 ml/min. flowrate (170 cm/hr). Flowthrough, elution and cleaning fractions were collected and assayed for total protein recovery by size-exclusion HPLC.

Test [8] concerns the target T3, human IgG2. The experiment in a line: mini-column chromatography, immobilised ligand. Here is the method:
as §3

Test [9] concerns the target T4, human IgG1. The experiment in a line: mini-column chromatography, immobilised ligand. The method, then: as §3
Test [10] has as its target T2, human IgG4. Put plainly: anisotropy; pH 7.5 - salt.
The target of test [11] is T4, human IgG1. Put plainly: anisotropy; pH 7.5 - salt.
Test [12] deals with T1, human IgG3. The experiment in a line: anisotropy; pH 9.5 + salt.
The target in test [13] is T1, human IgG3. The experiment in a line: anisotropy; pH 7.5 + salt.
The target in test [14] is T2, human IgG4. The experiment in a line: anisotropy; pH 4.0 - salt.
Test [15] has as its target T3, human IgG2. Put plainly: anisotropy; pH 4.0 - salt.
Test [16] addresses T4, human IgG1. Put plainly: anisotropy; pH 4.0 - salt.
The target in test [17] is T5, human IgG (unfractionated, polyclonal).
T5 construct: also called hIgG; polyclonal human IgG
Put plainly: filterplate; 25 mg human IgG applied per ml resin. Here is the method: After incubation of the samples, with shaking, at room temperature for one hour, the supernatant liquid from each well, containing unbound IgG, was collected by centrifugation into the cognate well of a collection plate. The assay plate was washed three times with PBST (200 μl/wash) and bound IgG was eluted from the media samples by incubation for 30-60 minutes at room temperature in 100 μl Elution Buffer (100 mM CAPS, pH 11.5). Eluates were collected by centrifugation for analysis. Protein concentrations were determined from A₂₈₀ measurements and plotted as a function of mg human IgG bound per ml resin vs. mg human IgG applied per ml resin.
These were subsequently tested in batch filterplate format for relative static capacity, human IgG subtype and species specificity as previously described. In addition, total dynamic capacities were determined for comparison. […] The static capacity (mg IgG bound per ml resin) was measured at the 2.5 mg/ml target concentration (25 mg human IgG applied per ml resin).

Starred links: 1 amine or outer side, 2 acyl side, 3 side chain; linkers in the order of their positions; H or OH if unused. Primed or numbered codes have the meaning given here. code X(3) = -NH-(CH2CH2O)2-CH2CH2- (from -X-NH2 = -NH-(CH2CH2O)2-CH2CH2-NH2), C(COCCOCC[*:2])N[*:1]; code Z = not defined here; Su = not defined here Bounds are passed on as bounds.

T3 sequence (P01859 other isoform, or with tags, fused parts or gaps): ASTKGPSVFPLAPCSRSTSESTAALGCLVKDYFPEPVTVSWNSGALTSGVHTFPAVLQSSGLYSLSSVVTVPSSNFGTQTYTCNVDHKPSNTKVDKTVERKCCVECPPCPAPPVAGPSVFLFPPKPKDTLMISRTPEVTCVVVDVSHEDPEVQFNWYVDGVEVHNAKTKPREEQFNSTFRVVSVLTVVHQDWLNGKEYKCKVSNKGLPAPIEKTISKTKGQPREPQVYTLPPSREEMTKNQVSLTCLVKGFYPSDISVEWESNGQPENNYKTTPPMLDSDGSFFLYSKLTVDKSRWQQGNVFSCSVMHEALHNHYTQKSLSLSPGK
T2 sequence (P01861 other isoform, or with tags, fused parts or gaps): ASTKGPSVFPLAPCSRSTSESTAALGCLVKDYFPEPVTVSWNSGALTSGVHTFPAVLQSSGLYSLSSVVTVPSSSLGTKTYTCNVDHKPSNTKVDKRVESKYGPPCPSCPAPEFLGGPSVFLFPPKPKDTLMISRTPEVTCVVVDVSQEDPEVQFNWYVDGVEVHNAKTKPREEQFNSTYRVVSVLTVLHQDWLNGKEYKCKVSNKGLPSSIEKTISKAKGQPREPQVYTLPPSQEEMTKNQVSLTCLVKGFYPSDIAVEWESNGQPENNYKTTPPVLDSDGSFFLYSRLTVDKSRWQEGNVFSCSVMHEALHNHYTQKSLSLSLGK
T4 sequence (P01857 other isoform, or with tags, fused parts or gaps): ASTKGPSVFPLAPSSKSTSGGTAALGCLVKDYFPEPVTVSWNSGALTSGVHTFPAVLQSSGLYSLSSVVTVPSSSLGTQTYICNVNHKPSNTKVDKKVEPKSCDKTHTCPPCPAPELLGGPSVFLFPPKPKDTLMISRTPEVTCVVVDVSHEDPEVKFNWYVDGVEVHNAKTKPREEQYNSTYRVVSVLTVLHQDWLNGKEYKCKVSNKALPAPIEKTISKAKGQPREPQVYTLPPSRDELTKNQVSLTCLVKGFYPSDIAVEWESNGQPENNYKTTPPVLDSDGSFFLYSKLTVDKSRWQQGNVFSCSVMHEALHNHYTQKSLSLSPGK
T1 sequence (P01860 other isoform, or with tags, fused parts or gaps): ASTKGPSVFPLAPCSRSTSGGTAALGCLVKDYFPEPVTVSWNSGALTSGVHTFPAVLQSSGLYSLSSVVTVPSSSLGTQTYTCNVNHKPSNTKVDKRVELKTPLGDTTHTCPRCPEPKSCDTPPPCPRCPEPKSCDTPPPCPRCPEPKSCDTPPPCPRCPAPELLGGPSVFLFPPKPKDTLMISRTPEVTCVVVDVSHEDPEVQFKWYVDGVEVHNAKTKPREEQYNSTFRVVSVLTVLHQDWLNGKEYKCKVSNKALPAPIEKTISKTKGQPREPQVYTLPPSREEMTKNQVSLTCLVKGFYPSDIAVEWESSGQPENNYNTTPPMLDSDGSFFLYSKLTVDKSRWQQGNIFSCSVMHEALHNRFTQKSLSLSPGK

B1: DX392 (peptide)
peptide: Ac-AGSYWCKIWDVCPQSPGPEGGGK-NH2
modifications: not fully specified (bridges); printed as Ac-AGSYWCKIWDVCPQSPGPEGGGK-NH2; cysteine pairing not given here
notes: immobilised in batch assays
Usually Kd stands for the free concentration of one partner at which half of the binding sites on the other are occupied at equilibrium, for simple one-to-one binding. As to B1, the Kd in the test with human IgG3 [1] amounted to 600 nM; in the test with human IgG3 [2], 320 nM.

B2: DX1071 (peptide)
peptide: Ac-GDNPMCWRASWWEDAYCINHEPGPEGGGK-NH2
modifications: not fully specified (bridges); printed as Ac-GDNPMCWRASWWEDAYCINHEPGPEGGGK-NH2; cysteine pairing not given here
notes: Derivative of DX596 (two internal lysines replaced by arginine and alanine); immobilised
Take B2: the “Bound (% of Total Load)” value was found to be 1% in the test with human IgG4 [3], 2% with human IgG2 [4], 7% with human IgG1 [5] and 0% with human IgG3 [6].

B3: DX1072 (peptide)
peptide: Ac-GDNPMCWRAHWWEDAYCINHEPGPEGGGK-NH2
modifications: not fully specified (bridges); printed as Ac-GDNPMCWRAHWWEDAYCINHEPGPEGGGK-NH2; cysteine pairing not given here
notes: Derivative of DX596 (Lys-Lys to Arg-Ala and adjacent Ser to His); immobilised
In the case of B3, the “Bound (% of Total Load)” value with human IgG4 [3] was 15%; in the test with human IgG2 [4] it was 21%; with human IgG1 [5], 31%; with human IgG3 [6] it was 0%.

B4: DX253 (peptide)
peptide: Ac-GDRRACSRDWSGALVWCAGHEPGPEGGGK-NH2
modifications: not fully specified (bridges); printed as Ac-GDRRACSRDWSGALVWCAGHEPGPEGGGK-NH2; cysteine pairing not given here
notes: immobilised on Sepharose in batch/column assays
Consider B4, for which the binding efficiency with human IgG4 [7], in the test with human IgG2 [8] and with human IgG1 [9] was more than 90% each time. Further, the “Bound (% of Total Load)” value with human IgG4 [3] was 60%; in the test with human IgG2 [4], 81%; with human IgG1 [5], 86%; in the test with human IgG3 [6], 0%. For the same molecule, the “bdg % (of Total Load)” value was found to be 40% in the test with human IgG4 [3], 63% with human IgG2 [4], 56% with human IgG1 [5] and 15% with human IgG3 [6].

B5: DX389 (peptide)
peptide: Ac-AGPHNCDDHYWYCKWFPGPEGGGK-NH2
modifications: not fully specified (bridges); printed as Ac-AGPHNCDDHYWYCKWFPGPEGGGK-NH2; cysteine pairing not given here
notes: immobilised in batch assays
In the case of B5, the Kd with human IgG3 [1] amounted to 1800 nM; in the test with human IgG3 [2], 2500 nM.

B6: DX398 (peptide)
peptide: Ac-AGAATCSTSYWYYQWFCTDSPGPEGGGK-NH2
modifications: not fully specified (bridges); printed as Ac-AGAATCSTSYWYYQWFCTDSPGPEGGGK-NH2; cysteine pairing not given here
notes: immobilised in batch assays
On to B6, for which the Kd in the test with human IgG3 [1] was found to be 40 nM; with human IgG4 [10] it was 3500 nM; in the test with human IgG1 [11], 4600 nM; in the test with human IgG3 [12] it was 300 nM; with human IgG3 [13] it was 300 nM; in the test with human IgG4 [14], 1600 nM. The Kd was determined as 1800 nM in the test with human IgG2 [15], 2400 nM with human IgG1 [16] and 20 nM in the test with human IgG3 [2].

B7: DX911 (peptide)
peptide: Ac-GDDHMCVYTTWGELIWCDNH-{code X(3)-code Z-code X(3)-NH2}
modifications: not fully specified (bridges); printed as Ac-GDDHMCVYTTWGELIWCDNH-X-Z-X-NH2; cysteine pairing not given here; reading uncertain
notes: DX249 derivative; immobilised
Turning to B7, in [17], the “Static Cap.” value was 9 mg/mL.

B8: DX909 (peptide)
peptide: Ac-GDDHMCVYTTWGELIWCDNH-{code X(3)-Su-code X(3)-NH2}
modifications: not fully specified (bridges); printed as Ac-GDDHMCVYTTWGELIWCDNH-X-Su-X-NH2; cysteine pairing not given here; reading uncertain
notes: DX249 derivative; immobilised
Turning to B8, the “Static Cap.” value in [17] turned out to be 11 mg/mL.

B9: DX413 (peptide)
peptide: Ac-AGYWYCWFPDRPECPLYPGPEGGGK-NH2
modifications: not fully specified (bridges); printed as Ac-AGYWYCWFPDRPECPLYPGPEGGGK-NH2; cysteine pairing not given here
With B9, the Kd amounted to 1100 nM in the test with human IgG3 [1] and 840 nM with human IgG3 [2].

B10: DX907 (peptide)
peptide: Ac-GDDHMCVYTTWGELIWCDNH-{code X(3)-NH2}
modifications: not fully specified (bridges); printed as Ac-GDDHMCVYTTWGELIWCDNH-X-NH2; cysteine pairing not given here
notes: DX249 derivative; immobilised
Take B10: the “Static Cap.” value in test [17] stood at 10 mg/mL.

B11: DX1070 (peptide)
peptide: Ac-GDWGECTVTSYGELIWCGGLEPGPEGGGK-NH2
modifications: not fully specified (bridges); printed as Ac-GDWGECTVTSYGELIWCGGLEPGPEGGGK-NH2; cysteine pairing not given here
notes: Immobilised on Sepharose
On to B11, for which the “Bound (% of Total Load)” value with human IgG4 [3] is 59%; in the test with human IgG2 [4] it was 82%; with human IgG1 [5], 87%; with human IgG3 [6], 0%.

B12: DX597 (peptide)
peptide: Ac-GDSWNCAFHHNEMVWCDDGGTPGPEGGGK-NH2
modifications: not fully specified (bridges); printed as Ac-GDSWNCAFHHNEMVWCDDGGTPGPEGGGK-NH2; cysteine pairing not given here
notes: Immobilised on Sepharose
As for B12, the “Bound (% of Total Load)” value with human IgG4 [3] is 71%; with human IgG2 [4], 90%; in the test with human IgG1 [5], 93%; in the test with human IgG3 [6] it was 0%.
